From publication PMC10899256 (2024)

B1: LKB1 LFa peptide WT [human] / purified TBC1D23 PH domain (545–684) [human] (parent complex)
chain 1: GADEDEDLFDIEDDIIYTQD
chain 2: YDTDEIDSSSMSDDDRKEVVNIQTWINKPDVKHHFPCKEVKESGHMFPSHLLVTATHMYCLREIVSRKGLAYIQSRQALNSVVKITSKKKHPELITFKYGNSSASGIEILAIERYLIPNAGDATKAIKQQIMKVLDALES

Variants of: B1
Experiment: ITC; read off a plot
With chain 1 F9A the Ka was ~5 10^4 M^-1. In the case of chain 1 F9L, the Ka is reported as ~4.6 10^4 M^-1.
